# T1: FcγRIIb (human, UniProt P31994 43-217)
# T1 construct: extracellular domain; also called FcgRIIb; 2b
# T1 sequence (looked up): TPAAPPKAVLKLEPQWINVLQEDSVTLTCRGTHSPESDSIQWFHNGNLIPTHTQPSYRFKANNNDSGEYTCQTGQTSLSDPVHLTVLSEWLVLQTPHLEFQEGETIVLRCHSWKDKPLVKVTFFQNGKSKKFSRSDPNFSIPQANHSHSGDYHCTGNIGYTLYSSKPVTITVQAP
# T2: FcγRIIa R (human, UniProt P12318 34-217)
# T2 construct: extracellular domain; Soluble His-tagged extracellular domain expressed in FreeStyle293 cells; analyte in Biacore; also called FcgRIIa R; FcgRIIaR; not shown: His tag attached to the C terminus
# T2 sequence (looked up): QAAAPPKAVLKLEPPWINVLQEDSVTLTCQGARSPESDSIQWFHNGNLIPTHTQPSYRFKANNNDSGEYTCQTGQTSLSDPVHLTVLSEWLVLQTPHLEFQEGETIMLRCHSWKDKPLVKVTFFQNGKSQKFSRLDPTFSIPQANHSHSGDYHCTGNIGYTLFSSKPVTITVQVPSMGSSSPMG
# T3: FcγRIIb (human, UniProt P31994 43-217)
# T3 construct: extracellular domain; Soluble His-tagged extracellular domain expressed in FreeStyle293 cells; analyte in Biacore; also called FcgRIIb; 2b; not shown: His tag attached to the C terminus
# T3 sequence (looked up): T1 sequence (looked up)
# B1: GpH7-A5/GpH7-B3 variant D265_11K/GpL16-k0 (antibody, human IgG1, kappa)
# heavy 1: not shown
# heavy 2: not shown
# light: DIVMTQSPLSLPVTPGEPASISCQASESLVHSNRNTYLHWYLQKPGQSPQLLIYKVSNRFSGVPDRFSGSGSGTDFTLKISRVEAEDVGVYYCSQNTHVPPTFGQGTKVEIERTVAAPSVFIFPPSDEQLKSGTASVVCLLNNFYPREAKVQWKVDNALQSGNSQESVTEQDSKDSTYSLSSTLTLSKADYEKHKVYACEVTHQGLSSPVTKSFNRGEC
# notes: mutation in the GpH7-B3 chain only; also called He Ab
# B2: GpH7-A5/GpH7-B3 variant D265_06M/GpL16-k0 (antibody, human IgG1, kappa)
# heavy 1: not shown
# heavy 2: not shown
# light: B1 light
# notes: as for B1
# B3: GpH7-A5/GpH7-B3 variant P329_18N/GpL16-k0 (antibody, human IgG1, kappa)
# heavy 1: not shown
# heavy 2: not shown
# light: B1 light
# notes: Heterodimerized anti-glypican-3 IgG1 antibody; alteration only in the GpH7-B3 H chain; position in EU numbering; also called He Ab
# B4: GpH7-A5/GpH7-B3 variant S298_12R/GpL16-k0 (antibody, human IgG1, kappa)
# heavy 1: not shown
# heavy 2: not shown
# light: B1 light
# notes: as for B3
# B5: GpH7-A5/GpH7-B3 variant P329_19Q/GpL16-k0 (antibody, human IgG1, kappa)
# heavy 1: not shown
# heavy 2: not shown
# light: B1 light
# notes: as for B3
# B6: GpH7-A5/GpH7-B3 variant Y300_12R/GpL16-k0 (antibody, human IgG1, kappa)
# heavy 1: not shown
# heavy 2: not shown
# light: B1 light
# notes: as for B3
# B7: GpH7-A5/GpH7-B3 variant S298_11K/GpL16-k0 (antibody, human IgG1, kappa)
# heavy 1: not shown
# heavy 2: not shown
# light: B1 light
# notes: as for B3
# B8: GpH7-A5/GpH7-B3 variant P331_01G/GpL16-k0 (antibody, human IgG1, kappa)
# heavy 1: not shown
# heavy 2: not shown
# light: B1 light
# notes: as for B3
# B9: GpH7-A5/GpH7-B3 variant S298_18N/GpL16-k0 (antibody, human IgG1, kappa)
# heavy 1: not shown
# heavy 2: not shown
# light: B1 light
# notes: as for B3
# B10: GpH7-A5/GpH7-B3 variant S298_19Q/GpL16-k0 (antibody, human IgG1, kappa)
# heavy 1: not shown
# heavy 2: not shown
# light: B1 light
# notes: as for B3
# B11: GpH7-A5/GpH7-B3 variant S298_10E/GpL16-k0 (antibody, human IgG1, kappa)
# heavy 1: not shown
# heavy 2: not shown
# light: B1 light
# notes: as for B3
# B12: GpH7-A5/GpH7-B3 variant S298_16H/GpL16-k0 (antibody, human IgG1, kappa)
# heavy 1: not shown
# heavy 2: not shown
# light: B1 light
# notes: as for B3
# B13: GpH7-A5/GpH7-B3 variant S298_20W/GpL16-k0 (antibody, human IgG1, kappa)
# heavy 1: not shown
# heavy 2: not shown
# light: B1 light
# notes: as for B3
# B14: GpH7-A5/GpH7-B3 variant S298_14T/GpL16-k0 (antibody, human IgG1, kappa)
# heavy 1: not shown
# heavy 2: not shown
# light: B1 light
# notes: as for B3
# B15: GpH7-A5/GpH7-B3 variant Y300_18N/GpL16-k0 (antibody, human IgG1, kappa)
# heavy 1: not shown
# heavy 2: not shown
# light: B1 light
# notes: as for B3
# B16: GpH7-A5/GpH7-B3 variant S298_15Y/GpL16-k0 (antibody, human IgG1, kappa)
# heavy 1: not shown
# heavy 2: not shown
# light: B1 light
# notes: as for B3
# Molecular target: T4, FcγRIIIa (human, UniProt P08637 17-208)
# T4 construct: extracellular domain; also called FcgRIIIa; 3a
# T4 sequence (P08637 17-208): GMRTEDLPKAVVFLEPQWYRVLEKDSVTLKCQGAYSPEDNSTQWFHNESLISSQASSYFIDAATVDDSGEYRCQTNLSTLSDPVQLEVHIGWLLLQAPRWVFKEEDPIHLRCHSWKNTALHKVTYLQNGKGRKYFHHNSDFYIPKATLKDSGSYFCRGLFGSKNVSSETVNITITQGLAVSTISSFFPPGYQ
# Experiment: SPR (Biacore), relative binding
row,He/Con_3a,Binder
1,2.5 % of GpH7-A5/GpH7-B3/GpL16-k0,B1
2,2.6 % of GpH7-A5/GpH7-B3/GpL16-k0,B2

# Molecular target: T1, FcγRIIb
# Experiment: SPR (Biacore), relative binding
row,He/Con_2b,Binder
1,14.9 % of GpH7-A5/GpH7-B3/GpL16-k0,B1
2,10 % of GpH7-A5/GpH7-B3/GpL16-k0,B2

# Molecular target: T4, FcγRIIIa
# Experiment: SPR; He/Con_3a divided by He/Con_2b (FcγRIIIa against FcγRIIb)
row,He_3a/2b (IIIa/IIb),Binder
1,0.17 ratio,B1
2,0.26 ratio,B2

# Molecular target: T2, FcγRIIa R
# Experiment: ratio of He/Con_2aR to He/Con_2b (binding to FcγRIIb as reference); SPR
row,He_2aR/2b (IIaR/IIb),Binder
1,1.51,B3
2,1.48,B4
3,1.34,B5
4,1.34,B6
5,1.55,B7
6,1.34,B8
7,1.41,B9
8,1.3,B10
9,1.37,B11
10,1.39,B12
11,1.35,B13
12,1.26,B14
13,1.21,B15
14,1.29,B16

# Molecular target: T3, FcγRIIb
# Experiment: SPR (Biacore), antibody captured via antigen peptide, FcγR as analyte
# Method: (§1) The heterodimerized antibodies He Abs in which one of the H chains was introduced with an alteration were assayed for their binding activities to each activating FcγR and inhibitory FcγR according to the method described in Example 4. […] The activating FcγRs in FIGS. 26, 27, 28, and 29 are FcγRIa, FcγRIIa (R), FcγRIIa (H), and FcγRIIIa, respectively.
# (§2) Analysis of interaction between objective antibody and the FcγR was carried out using Biacore T100 (GE Healthcare). HBS-EP+ (GE Healthcare) was used as the running buffer, and the measurement temperature was set to 25° C. Chips produced by immobilizing the antigen peptide by the amine coupling method to a Series S Sencor Chip CM5 (GE Healthcare), or alternatively, chips produced by allowing preliminarily biotinylated antigen peptides to interact with and immobilize onto a Series S Sensor Chip SA (certified) (GE Healthcare) were used. Antibodies of interest were captured onto an antigen peptide-immobilized chip, and allowed to interact to each FcγR diluted with running buffer. To regenerate and repeatedly use the chip, the antibodies captured on the chip were washed off by reacting 10 mM glycine-HCl, pH 1.5.
row,He/Con_2b (IIb binding relative to GpH7-A5/GpH7-B3/GpL16-k0),Binder
1,40.4 % of control (control = 100),B3
2,57.8 % of control (control = 100),B4
3,30.7 % of control (control = 100),B5
4,41.2 % of control (control = 100),B6
5,61.3 % of control (control = 100),B7
6,45.4 % of control (control = 100),B8
7,48.1 % of control (control = 100),B9
8,73.3 % of control (control = 100),B10
9,47.6 % of control (control = 100),B11
10,63.5 % of control (control = 100),B12
11,41.1 % of control (control = 100),B13
12,77.9 % of control (control = 100),B14
13,82.7 % of control (control = 100),B15
14,61.4 % of control (control = 100),B16

# Molecular target: T2, FcγRIIa R
# Experiment: as above
# Method: as §1, §2
row,He/Con_2aR (IIaR binding relative to GpH7-A5/GpH7-B3/GpL16-k0),Binder
1,61.2 % of control (control = 100),B3
2,85.3 % of control (control = 100),B4
3,41.1 % of control (control = 100),B5
4,55.1 % of control (control = 100),B6
5,95.1 % of control (control = 100),B7
6,61 % of control (control = 100),B8
7,68 % of control (control = 100),B9
8,95 % of control (control = 100),B10
9,65.1 % of control (control = 100),B11
10,88.5 % of control (control = 100),B12
11,55.4 % of control (control = 100),B13
12,98.5 % of control (control = 100),B14
13,100 % of control (control = 100),B15
14,79.1 % of control (control = 100),B16

# — patent US20150344570A1 (published 2015)
